Data published in PMC11094075, “Ago2/CAV1 interaction potentiates metastasis via controlling Ago2 localization and miRNA action” (EMBO Reports, 2024).

Biological target: T1, HA-tagged wild-type Ago2 (HA-Ago2Wt), in Ago2-knockout A549 and HCC1806 cells (human, UniProt Q9UKV8 1-859)
T1 construct: Argonaute-2 (Ago2), human; source: lentiviral (pLV-EF1a-HA-Ago2-Blast), Ago2-knockout A549 and HCC1806 cells, in lysate; not shown: HA, N-terminal, kept
Assay: co-IP; Ago2-knockout A549 and HCC1806 cells expressing HA-Ago2Wt, HA-Ago2K212A or HA-Ago2K212R; IP with anti-HA, blot for endogenous CAV1; ratio pCAV1/pHA; vehicle or TM (10 µM)
Details: partners not purified

T1 sequence (Q9UKV8 whole entry): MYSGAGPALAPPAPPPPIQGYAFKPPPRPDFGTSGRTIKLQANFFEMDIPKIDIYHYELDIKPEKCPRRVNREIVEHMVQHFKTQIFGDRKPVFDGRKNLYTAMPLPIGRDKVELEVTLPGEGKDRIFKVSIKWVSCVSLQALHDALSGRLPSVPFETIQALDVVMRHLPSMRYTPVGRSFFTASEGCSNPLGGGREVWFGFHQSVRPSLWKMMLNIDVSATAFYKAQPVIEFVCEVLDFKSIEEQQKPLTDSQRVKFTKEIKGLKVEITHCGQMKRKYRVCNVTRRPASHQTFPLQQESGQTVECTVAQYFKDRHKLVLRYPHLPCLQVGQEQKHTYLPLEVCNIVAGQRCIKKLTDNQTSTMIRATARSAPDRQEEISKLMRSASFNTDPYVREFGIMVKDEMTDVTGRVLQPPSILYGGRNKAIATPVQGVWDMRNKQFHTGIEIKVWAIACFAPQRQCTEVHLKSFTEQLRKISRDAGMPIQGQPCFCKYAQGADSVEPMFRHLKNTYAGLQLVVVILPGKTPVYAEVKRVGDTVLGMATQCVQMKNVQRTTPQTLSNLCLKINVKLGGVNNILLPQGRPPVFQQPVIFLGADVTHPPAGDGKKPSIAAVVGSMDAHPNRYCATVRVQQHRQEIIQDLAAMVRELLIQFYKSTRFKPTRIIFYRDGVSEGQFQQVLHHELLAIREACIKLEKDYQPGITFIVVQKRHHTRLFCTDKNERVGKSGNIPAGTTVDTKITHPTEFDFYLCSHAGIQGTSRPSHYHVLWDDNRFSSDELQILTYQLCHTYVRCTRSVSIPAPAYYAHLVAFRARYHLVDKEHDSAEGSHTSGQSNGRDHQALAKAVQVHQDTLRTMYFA

B1: Caveolin-1 (CAV1), endogenous (natural protein, UniProt Q03135 1-178, looked up)
chain: MSGGKYVDSEGHLYTVPIREQGNIYKPNNKAMADELSEKQVYDAHTKEIDLVNRDPKHLNDDVVKIDFEDVIAEPEGTHSFDGIWKASFTTFTVTKYWFYRLLSALFGIPMALIWGIYFAILSFLHIWAVVPCIKSFLIEIQCISRVYSIYVHTVCDPLFEAVGKIFSNVRINLQKEI
notes: Caveolin-1 (CAV1), human; source: endogenous
  percent of pCAV1/pHA left in cells treated with TM (10 µM) against vehicle: ~49%
